According to article PMC7759300 (The Journal of Cell Biology, 2020):

B1: GFP-SAS-6-Strep (natural protein)
chain: MSQVLFHQLVPLQVKCKDCEERRVSIRMSIELQSVSNPVHRKDLVIRLTDDTDPFFLYNLVISEEDFQSLKFQQGLLVDFLAFPQKFIDLLQQCTQEHAKEIPRFLLQLVSPAAILDNSPAFLNVVETNPFKHLTHLSLKLLPGNDVEIKKFLAGCLKCSKEEKLSLMQSLDDATKQLDFTRKTLAEKKQELDKLRNEWASHTAALTNKHSQELTNEKEKALQAQVQYQQQHEQQKKDLEILHQQNIHQLQNRLSELEAANKDLTERKYKGDSTIRELKAKLSGVEEELQRTKQEVLSLRRENSTLDVECHEKEKHVNQLQTKVAVLEQEIKDKDQLVLRTKEAFDTIQEQKVVLEENGEKNQVQLGKLEATIKSLSAELLKANEIIKKLQGDLKTLMGKLKLKNTVTIQQEKLLAEKEEKLQKEQKELQDVGQSLRIKEQEVCKLQEQLEATVKKLEESKQLLKNNEKLITWLNKELNENQLVRKQDVLGPSTTPPAHSSSNTIRSGISPNLNVVDGRLTYPTCGIGYPVSSAFAFQNTFPHSISAKNTSHPGSGTKVQFNLQFTKPNASLGDVQSGATISMPCSTDKENGENVGLESKYLKKREDSIPLRGLSQNLFSNSDHQRDGTLGALHTSSKPTALPSASSAYFPGQLPNS

How the values were obtained:
[1] = molecular target: SAS-6 (UniProt Q6UVJ0); assay: GFP-Trap co-IP, SAS-6 blot; conditions: reference: wild type; sites S325
[2] = molecular target: SAS-6 (UniProt Q6UVJ0); assay: GFP-Trap co-IP, SAS-6 blot; conditions: reference: wild type; sites S325; remark: listed apart in the source
[3] = molecular target: Strep-NEDD1 (human, UniProt Q8NHV4 1-660); assay: pull-down
Chain of Strep-NEDD1 (Q8NHV4 whole entry): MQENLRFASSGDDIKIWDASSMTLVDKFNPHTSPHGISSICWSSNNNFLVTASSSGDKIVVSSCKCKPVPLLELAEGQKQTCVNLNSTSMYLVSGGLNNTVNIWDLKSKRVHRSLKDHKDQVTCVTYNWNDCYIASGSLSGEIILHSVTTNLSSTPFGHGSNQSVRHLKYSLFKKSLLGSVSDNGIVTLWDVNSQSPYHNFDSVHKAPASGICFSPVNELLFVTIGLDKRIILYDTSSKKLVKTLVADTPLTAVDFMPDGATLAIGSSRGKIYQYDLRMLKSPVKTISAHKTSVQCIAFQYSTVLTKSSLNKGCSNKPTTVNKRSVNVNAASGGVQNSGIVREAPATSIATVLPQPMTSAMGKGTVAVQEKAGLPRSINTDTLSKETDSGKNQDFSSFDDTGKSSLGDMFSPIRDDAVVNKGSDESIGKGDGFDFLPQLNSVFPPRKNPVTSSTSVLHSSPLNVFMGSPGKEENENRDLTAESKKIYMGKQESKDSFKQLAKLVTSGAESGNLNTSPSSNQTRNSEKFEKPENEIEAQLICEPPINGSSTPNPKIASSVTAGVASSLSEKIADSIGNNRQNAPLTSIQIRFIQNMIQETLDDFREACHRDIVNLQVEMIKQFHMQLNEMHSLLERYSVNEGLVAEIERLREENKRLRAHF

Row | Molecule | binding against the reference [1] | binding against the reference [2] | binding result [3]
1 | NEDD1 (from UniProt Q8NHV4) S325A | weaker | weaker | –
2 | B1 | – | – | binds
